The data set deals with the molecule itself. Kind of data set: solution 2D 1H-1H NOESY NMR, 20 mM peptide. As for the experimental part: NMR: All solution state NMR experiments were carried out on a Bruker 700 MHz spectrometer equipped with a cryoprobe. NMR data were processed with TOPSPIN (Bruker), then analysed using Sparky (W. Lee et al. Bioinfo. 2015, 31, 1325) programs. 0.5 mM or 20 mM GV8 peptides were dissolved in water, pH 6.8 with 10% D₂O for deuterium lock and DSS for signal reference. Two dimensional (2D)¹H-¹H TOCSY and NOESY spectra were acquired with 80 ms and 200 ms mixing times, respectively. In order to monitor hydrogel formation, 1D ¹H spectrum and a series of 2D ¹H-¹H NOESY spectra were recorded every four hours for 20 hours using the 20 mM peptide solution. For H/D exchange experiments, 0.5 mM and 20 mM peptide samples were dissolved in 100% D₂O and 2D ¹H-¹H TOCSY spectra were recorded at 30 min intervals. The extrinsic exchange rates were obtained by fitting the peak intensity vs. time to a single-exponential decay equation. The protection factor were calculated as the ratio of intrinsic exchange rates (calculated from SPHERE (Bai et al. Proteins. 1993, 17, 75)) to the extrinsic exchange rates. […] Amide temperature coefficients were also determined by recording 1D ¹H spectra of 0.5 mM and 20 mM GV8 peptide at 298 K, 303 K, 308 K and 313 K. Amide proton chemical shift deviations were fitted linearly against temperature and the temperature coefficients were calculated as σδHN/ΔT (ppb K⁻¹).

B1: Ac-GLYGGYGV-NH2 (GV8) peptide (peptide)
peptide: Ac-GLYGGYGV-NH2
notes: Synthetic 8-residue peptide, a repeat derived from suckerin-19; It is entered only for its self-association (dimer or oligomer in solution at 20 mM, antiparallel beta-sheets in the hydrogel); For the ssNMR experiments the peptide was uniformly 13C-15N labelled
In the case of B1, the binding result is recorded as “binds”.

Values taken from patent US20220024979A1 (NANYANG TECHNOLOGICAL UNIVERSITY, published 2022).
